# Results from paper PMC9870083.
# Target: RARα (UniProt P10276)
# Assay: Flag IP of RARα, GFP-p65 blot
# Settings: reference: GFP-p65 wild type; sites S276
substance,measurement,value
RelA/p65 (from UniProt Q04206) GFP-p65-S276A,binding against the reference,lost
